According to the supplement of paper PMC11246515:
± gives the standard deviation of the averaged measurements.

Experiment: total protein half-life in vivo (active degradation + dilution); higher = more stable protein
[1] = E. coli NCM3722 delta-clpP, growth: N-lim chemostat, doubling time 6 h
[2] = E. coli NCM3722 delta-hslV, growth: N-lim chemostat, doubling time 6 h
[3] = E. coli NCM3722 delta-lon, growth: N-lim chemostat, doubling time 6 h
[4] = E. coli NCM3722 delta-smpB, growth: N-lim chemostat, doubling time 6 h
[5] = wild type E. coli NCM3722, growth: C-lim chemostat, doubling time 3 h
[6] = wild type E. coli NCM3722, growth: C-lim chemostat, doubling time 6 h
[7] = wild type E. coli NCM3722, growth: C-lim chemostat, doubling time 12 h
[8] = wild type E. coli NCM3722, growth: N-lim chemostat, doubling time 6 h
[9] = wild type E. coli NCM3722, growth: N-lim chemostat, doubling time 12 h
[10] = wild type E. coli NCM3722, growth: P-lim chemostat, doubling time 6 h
[11] = wild type E. coli NCM3722, growth: P-lim chemostat, doubling time 12 h
[12] = E. coli NCM3722 delta-clpP delta-lon delta-hslV, growth: N-lim chemostat, doubling time 6 h

| Sequence | total protein half-life in vivo [1] [h] | total protein half-life in vivo [2] [h] | total protein half-life in vivo [3] [h] | total protein half-life in vivo [4] [h] | total protein half-life in vivo [5] [h] | total protein half-life in vivo [6] [h] | total protein half-life in vivo [7] [h] | total protein half-life in vivo [8] [h] | total protein half-life in vivo [9] [h] | total protein half-life in vivo [10] [h] | total protein half-life in vivo [11] [h] | total protein half-life in vivo [12] [h] |
| --- | --- | --- | --- | --- | --- | --- | --- | --- | --- | --- | --- | --- |
| MKKALQVAMFSLFTVIGFNAQANEHHHETMSEAQPQVISATGVVKGIDLESKKITIHHDPIAAVNWPEMTMRFTITPQTKMSEIKTGDKVAFNFVQQGNLSLLQDIKVSQ | 2.72 | 5.07 ± 1 | 5.07 ± 0.12 | 4.22 | 2.8 | 4.69 | 6.31 ± 4.1 | 4.84 ± 0.35 | 7.67 ± 1.3 | 4.39 ± 1 | 7.41 ± 1.9 | – |
| MKKATCLTDDQRWQSVLARDPNADGEFVFAVRTTGIFCRPSCRARHALRENVSFYANASEALAAGFRPCKRCQPEKANAQQHRLDKITHACRLLEQETPVTLEALADQVAMSPFHLHRLFKATTGMTPKAWQQAWRARRLRESLAKGESVTTSILNAGFPDSSSYYRKADETLGMTAKQFRHGGENLAVRYALADCELGRCLVAESERGICAILLGDDDATLISELQQMFPAADNAPADLMFQQHVREVIASLNQRDTPLTLPLDIRGTAFQQQVWQALRTIPCGETVSYQQLANAIGKPKAVRAVASACAANKLAIIIPCHRVVRGDGTLSGYRWGVSRKAQLLRREAENEER | 3.82 ± 0.28 | 2.03 | 3.25 ± 0.14 | 2.46 | – | 3.38 | 4.07 | 2.22 | 3.48 | 1.81 | 3.5 ± 0.11 | – |
| MKKFALLAGLFVFAPMTWAQDYNIKNGLPSETYITCAEANEMAKTDSAQVAEIVAVMGNASVASRDLKIEQSPELSAKVVEKLNQVCAKDPQMLLITAIDDTMRAIGKK [P0AB46] | 4 | 6.28 | – | 4.66 ± 0.55 | 2.77 | 4.69 ± 0.2 | 6.77 ± 0.093 | 4.93 | 10.1 ± 2.6 | 4.4 ± 1.1 | 8.95 ± 0.44 | 3 ± 0.32 |
| MKKFSGIIPPVSSTFHRDGTLDKKAMREVADFLINKGVDGLFYLGTGGEFSQMNTAQRMALAEEAVTIVDGRVPVLIGVGSPSTDEAVKLAQHAQAYGADGIVAINPYYWKVAPRNLDDYYQQIARSVTLPVILYNFPDLTGQDLTPETVTRLALQNENIVGIKDTIDSVGHLRTMINTVKSVRPSFSVFCGYDDHLLNTMLLGGDGAITASANFAPELSVGIYRAWREGDLATAATLNKKLLQLPAIYALETPFVSLIKYSMQCVGLPVETYCLPPILEASEEAKDKVHVLLTAQGILPV | 2.73 ± 0.14 | – | – | 3.17 ± 1.4 | 2.83 ± 0.1 | 4.76 ± 0.24 | 9.39 ± 0.15 | 3.68 | – | – | 11.11 ± 0.052 | 4.88 ± 0.66 |
| MKKGTVLNSDISSVISRLGHTDTLVVCDAGLPIPKSTTRIDMALTQGVPSFMQVLGVVTNEMQVEAAIIAEEIKHHNPQLHETLLTHLEQLQKHQGNTIEIRYTTHEQFKQQTAESQAVIRSGECSPYANIILCAGVTF | 5.79 ± 2.1 | 4.85 | – | 4.78 ± 0.7 | 3.49 ± 0.2 | 6.69 ± 1.8 | 10.6 ± 0.4 | 4.95 ± 0.51 | 6.08 | 6.43 ± 0.15 | 13.3 ± 2.3 | 5.99 ± 0.1 |
| MKKIALIIGSMIAGGIISAAGFTWVAKAEPPAEKTSTAERKILFWYDPMYPNTRFDKPGKSPFMDMDLVPKYADEESSASGVRIDPTQTQNLGVKTATVTRGPLTFAQSFPANVSYNEYQYAIVQARAAGFIDKVYPLTVGDKVQKGTPLLDLTIPDWVEAQSEYLLLRETGGTATQTEGILERLRLAGMPEADIRRLIATQKIQTRFTLKAPIDGVITAFDLRAGMNIAKDNVVAKIQGMDPVWVTAAIPESIAWLVKDASQFTLTVPARPDKTLTIRKWTLLPGVDAATRTLQLRLEVDNADEALKPGMNAWLQLNTASEPMLLIPSQALIDTGSEQRVITVDADGRFVPKRVAVFQASQGVTALRSGLAEGEKVVSSGLFLIDSEANISGALERMRSESATHAH | 4.8 | 5.69 ± 0.66 | 4.62 | 4.32 ± 1.3 | > 4 | 5.79 | > 16 | 5.73 ± 0.53 | 10.2 ± 0.68 | 5.52 ± 0.11 | 10.7 ± 0.35 | 2.95 |
| MKKIDAIIKPFKLDDVREALAEVGITGMTVTEVKGFGRQKGHTELYRGAEYMVDFLPKVKIEIVVPDDIVDTCVDTIIRTAQTGKIGDGKIFVFDVARVIRIRTGEEDDAAI [P0A9Z1] | 5.59 ± 1.1 | 5.06 ± 0.23 | 5.35 ± 0.13 | 4.77 ± 0.36 | 3.3 ± 0.45 | 5.57 ± 0.17 | 10.5 ± 1.1 | 4.68 ± 0.49 | 8.91 ± 0.19 | 5.77 ± 0.31 | 11.6 ± 0.54 | 5.76 ± 0.58 |
| MKKIIALMLFLTFFAHANDSEPGSQYLKAAEAGDRRAQYFLADSWFSSGDLSKAEYWAQKAADSGDADACALLAQIKITNPVSLDYPQAKVLAEKAAQAGSKEGEVTLAHILVNTQAGKPDYPKAISLLENASEDLENDSAVDAQMLLGLIYANGVGIKADDDKATWYFKRSSAISRTGYSEYWAGMMFLNGEEGFIEKNKQKALHWLNLSCMEGFDTGCEEFEKLTNG [P0AF56] | 2.24 ± 1.1 | – | 1.32 | 0.675 | 1.04 ± 0.074 | 1.62 ± 0.75 | 2.73 ± 2.1 | 1.12 | 0.655 | 1.33 ± 0.63 | 1.48 ± 0.49 | 2.83 ± 0.045 |
